Changes are numbered by the printed parent chain. Names and notes keep the numbering of the source. “Also recorded” adds a separate entry of the source.
Key:
Format in all cases: biochemical
[1] = Enantiospecific LC-MS/MS quantification of (R)- and (S)-2-hydroxyadipate product; details: for Enantiomeric Excess: Table 3, (R)-2-hydroxyadipate product
Protocol: Quantitative, enantiospecific LC-MS/MS was performed based on the procedure described for 2-hydroxyglutarate. Jin et al., PLoS one 6, e16812: 1-8 (2011); Struys, et al., Clin. Chem. 50: 1391-1395 (2004). To 20 μL of reaction mix, 2 μL of 130 μg/mL of a racemic mixture of [3,3,4,4-^2H4]-2-hydroxyglutarate (internal standard) in water was added and the mixture dried by vacuum centrifuge (50° C., 15 min). The dry residue was treated with 50 mg/mL freshly prepared diacetyl-L-tartaric anhydride (Sigma) in dichloromethane/glacial acetic acid (4:1 by volume) and heated (75° C., 30 min). After drying (50° C., 15 min) the residue was dissolved in 100 μL of LC mobile phase A (see below) for analysis. An Agilent 1200 series HPLC (Santa Clara, Calif.) was used for liquid chromatography (LC) and a Sciex/Applied Biosystems API 3200 QTrap (Carlsbad, Calif.) was used for triple quadrupole mass spectrometry (MS/MS). Mobile phase A: water, 3% acetonitrile, 280 μL ammonium hydroxide (^˜25%), pH adjusted to 3.6 with formic acid (^˜98%). Mobile phase B: methanol. Analytical column: Kinetex C-18, 150×4.6 mm, 2.6 μm, and SafeGuard C-18 4×3 mm guard-column from Phenomenex (Torrance, Calif.). Column temperature: 45° C. Elution gradient at 1 mL/min flow rate: 0-1 min 0% B, 1-2 min 0-100% B, 2-3.5 min 100% B, 3.5-4 min 100-0% B, 4-10 min 0% B. Injection volume: 10 μL. Q1/Q3 (m/z) transitions were monitored: 377/161, 2-hydroxyadipate (2HA) and 367/151, [3,3,4,4-^2H4]-2-hydroxyglutarate (2HG-d4). To calibrate, 0, 0.16, 0.54, 1.8, 6, and 20 μg/mL 2-hydroxyadipate (Sigma), synthesized as described above, was analyzed in reaction buffer. (R)- and (S)-enantiomers were discriminated based on time of elution from the HPLC column, using the relative elution time for (R)-2-hydroxyglutarate compared to the racemic mixture of 2-hydroxyglutarate described previously to identify the (R)-2-hydroxyadipate enantiomer. Jin et al., PLoS one 6, e16812: 1-8 (2011). Standards were analyzed alongside experimental samples. Accuracy acceptance criteria were 85% for all but the lowest level (0.16 μg/mL, 80%).

[2] = 2-hydroxyadipate dehydrogenase activity of crude bacterial lysates expressing ScHIDH mutants; details: for reaction rate relative to ScHIDH-R143H: crude lysates, 15 mM 2-oxoadipate; for 2-hydroxyadipate dehydrogenase activity in crude bacterial lysates: 100 μM NADH substrate
Protocol: To obtain crude lysates, 0.5 mL of starter cultures generated as described above were added to 4.5 mL LB-Amp, shaken for 2 h, and shaken for an additional 2 h after induction with 1 mM IPTG. Pellets from these cultures were harvested by centrifugation at 4500×g at 4° C. These pellets were resuspended into 500 μL of Buffer A (0.2% Triton-X 100, 1 mM PMSF, 0.5 mM EDTA, 10 mM Tris, pH 7.5) on ice and sonicated for 6-cycles of 15 seconds each on ice on a Sonifer 250 (Branson). This was then spun down at 13,000×g at 4° C. for 15 min and the cleared lysates were normalized with additional lysis buffer to 700 ng/4 and stored at −80° C. as aliquots. Protein concentrations were determined using the BioRad Protein Assay reagent according to the manufacturer's instructions.
(§1) NADH, 2-oxoadipate, 2-oxoglutarate, 2-heptandioate, and MgCl2 were from Sigma. Standard reaction mixes contained 15 mM 2-oxoadipate, 100 μM NADH, and a reaction buffer with final concentrations of 20 mM MgCl2 and 500 mM HEPES, pH 7.3. NADH oxidation was monitored by the decrease in fluorescence with excitation of 340 nm and emission of 450 nm on a PolarSTAR Optima plate reader (BMG Labtech). Fluorescence monitored reactions were carried out in 10-μL volumes in a 384-well black microplate (Greiner 788076) covered with clear optical film. The levels of fluorescence were converted to NADH concentrations based on standards of NADH in reaction buffer containing BSA. Reactions with high amounts of NADH were monitored by the UV absorbance of NADH at 340 nm in 40-μL reaction volumes in clear 96-well plates.
(§2) Reaction rates are NADH oxidation per unit time per unit of purified enzyme or crude lysate and 1 Unit (U) is 1 μmolNADH min^−1 mgenzyme^−1. Rates are initial rates calculated by least squares linear regression on the first 10 minutes of the reaction. For KM determination, concentrations of substrate/cofactors at least 5×-higher than the KM were used, while the species of interest was varied in concentration; substrate/cofactor concentrations: 500 μM NADH; 15 mM 2-oxoadipate; 20 mM MgCl2. Reported α-hydroxyadipate (2-hydroxy adpic acid) Vmax values were obtained from 2-oxoadipate KM determination experiments. Michaelis-Menten KM and Vmax parameters were estimated by fitting data to a curve using nonlinear regression in GraphPad Prism 5.0 (GraphPad Software, La Jolla, Calif.).

[3] = Kinetic characterization of ScHIDH mutants: KM 2-oxoadipate and Vmax; details: for Km / Vmax: Table 3; for Km: 40 ng/μL enzyme, 500 μM NADH, 20 mM MgCl2, pH 7.3, 25° C.; for Vmax: from 2-oxoadipate KM experiments
Protocol: as §2
(§3) Assays were performed with 40 ng/μL enzyme, 15 mM 2-oxoadipate, 100 μM NADH, 20 mM MgCl2 and 100 mM HEPES, pH 7.3 in 10 or 20 μL volumes in 384-well black microplates. NADH concentration was monitored by the decrease in fluorescence (excitation wavelength: 340 nm; emission wavelength: 450 nm) on a fluorescent plate reader. The fluorescence intensities were converted to NADH concentrations based on NADH standards. Reactions with high amounts of NADH (>300 μM) were monitored by the UV absorbance of NADH at 340 nm in a 40 μL reaction volume in a clear 96-well plate on the same plate reader. Reactions with ScHIDH were carried out at 25° C. and reactions with TtHIDH were carried out at 45° C. Reported rates are initial rates from the first 10 minutes of reaction. For KM determination, concentrations of substrate at least 5×-higher than the KM were used (for NADH, 500 μM; for 2-oxoadipate, 15 mM) while the substrate of interest was varied in concentration. KM and Vmax were estimated by fitting data to equation (1) using nonlinear regression, where x is substrate concentration and y is the rate. y=Vmax·x/KM+x (1) Rate data for ScHIDH-R143C, -R143H, and -R143K are summarized in Table 3.

[4] = Kinetic characterization of ScHIDH mutants: KM NADH; details: Table 3; 15 mM 2-oxoadipate, 20 mM MgCl2, pH 7.3, 25° C.
Protocol: as §2, §3

[5] = NADH oxidation with 2-oxoadipate plus CO2 added as NaHCO3 (reductive carboxylation)
Protocol: as §1, §2

[6] = NADH oxidation rate of purified HIDH enzymes with 2-oxoadipate (fluorescence / UV 340 nm); details: 100 μM NADH
Protocol: as §1, §2, §3

B1: ScHIDH-R143K: Saccharomyces cerevisiae homoisocitrate dehydrogenase R143K mutant (protein)
chain: MFRSVATRLSACRGLASNAARKSLTIGLIPGDGIGKEVIPAGKQVLENLNSKHGLSFNFIDLYAGFQTFQETGKALPDETVKVLKEQCQGALFGAVQSPTTKVEGYSSPIVALRREMGLFANVRPVKSVEGEKGKPIDMVIVKENTEDLYIKIEKTYIDKATGTRVADATKRISEIATRRIATIALDIALKRLQTRGQATLTVTHKSNVLSQSDGLFREICKEVYESNKDKYGQIKYNEQIVDSMVYRLFREPQCFDVIVAPNLYGDILSDGAAALVGSLGVVPSANVGPEIVIGEPCHGSAPDIAGKGIANPIATIRSTALMLEFLGHNEAAQDIYKAVDANLREGSIKTPDLGGKASTQQVVDDVLSRL
modifications: ScHIDH R143K polypeptide
notes: Saccharomyces cerevisiae homoisocitrate dehydrogenase R143K mutant
- Enantiomeric Excess [1]: > 92%
- reaction rate relative to ScHIDH-R143H ([2]; 800 μM NADH): 83.0±0.03%
- reaction rate relative to ScHIDH-R143H ([2]; standard conditions of 100 μM NADH): 3.6±0.3%
- Km [3]: 9.4 mM
- Vmax [3]: 0.011 µmol/min/mg
- Km [4]: 1.1 mM

B2: ScHIDH-Y150D: Saccharomyces cerevisiae homoisocitrate dehydrogenase Y150D mutant (protein)
chain: B1 chain with K143R, Y150D
modifications: ScHIDH Y150D polypeptide
notes: Saccharomyces cerevisiae homoisocitrate dehydrogenase Y150D mutant
- 2-hydroxyadipate dehydrogenase activity in crude bacterial lysates [2]: did not demonstrate 2-hydroxyadipate dehydrogenase activity

B3: ScHIDH-R143C: Saccharomyces cerevisiae homoisocitrate dehydrogenase R143C mutant (protein)
chain: B1 chain with K143C
modifications: ScHIDH R143C polypeptide
notes: Saccharomyces cerevisiae homoisocitrate dehydrogenase R143C mutant
- Enantiomeric Excess [1]: > 99.2%
- 2-hydroxyadipate dehydrogenase activity in crude bacterial lysates [2]: did not demonstrate 2-hydroxyadipate dehydrogenase activity
- Km [3]: 11 mM
- Vmax [3]: 0.065 µmol/min/mg
- maximal turnover compared with other ScHIDH mutants ([3]; in vitro data): highest maximal turnover of any ScHIDH mutant assayed
- Km [4]: 0.32 mM

B4: ScHIDH-R114Q: Saccharomyces cerevisiae homoisocitrate dehydrogenase R114Q mutant (protein)
chain: B1 chain with R114Q, K143R
modifications: ScHIDH R114Q polypeptide
notes: Saccharomyces cerevisiae homoisocitrate dehydrogenase R114Q mutant
- 2-hydroxyadipate dehydrogenase activity in crude bacterial lysates [2]: did not demonstrate 2-hydroxyadipate dehydrogenase activity

B5: ScHIDH-R115Q: Saccharomyces cerevisiae homoisocitrate dehydrogenase R115Q mutant (protein)
chain: B1 chain with R115Q, K143R
modifications: ScHIDH R115Q polypeptide
notes: Saccharomyces cerevisiae homoisocitrate dehydrogenase R115Q mutant
- NADH oxidation when CO2 was provided as NaHCO3 ([5]; purified enzyme, 15 mM 2-oxoadipate, 100 μM NADH, 0-42 mM NaHCO3): did oxidize NADH
- 2-hydroxyadipate dehydrogenase activity in crude bacterial lysates [2]: did not demonstrate 2-hydroxyadipate dehydrogenase activity
- NADH oxidation by purified enzyme in the presence of 2-oxoadipate ([6]; standard reaction conditions, 10 mM 2-oxoadipate, 20 mM MgCl2): behaved essentially the same as wild type; also recorded: did not oxidize NADH

B6: ScHIDH-V111D: Saccharomyces cerevisiae homoisocitrate dehydrogenase V111D mutant (protein)
chain: B1 chain with V111D, K143R
modifications: ScHIDH V111D polypeptide
notes: Saccharomyces cerevisiae homoisocitrate dehydrogenase V111D mutant
- 2-hydroxyadipate dehydrogenase activity in crude bacterial lysates [2]: did not demonstrate 2-hydroxyadipate dehydrogenase activity

B7: TtHIDH-R118H: Thermus thermophilus homoisocitrate dehydrogenase R118H mutant (protein)
chain: MAYRICLIEGDGIGHEVIPAARRVLEATGLPLEFVEAEAGWETFERRGTSVPEETVEKILSCHATLFGAATSPTRKVPGFFGAIRYLRRRLDLYANVRPAKSRPVPGSRPGVDLVIVHENTEGLYVEQERRYLDVAIADAVISKKASERIGRAALRIAEGRPRKTLHIAHKANVLPLTQGLFLDTVKEVAKDFPLVNVQDIIVDNCAMQLVMRPERFDVIVTTNLLGDILSDLAAGLVGGLGLAPSGNIGDTTAVFEPVHGSAPDIAGKGIANPTAAILSAAMMLDYLGEKEAAKRVEKAVDLVLERGPRTPDLGGDATTEAFTEAVVEALKSL
modifications: TtHIDH R118H polypeptide
notes: Thermus thermophilus homoisocitrate dehydrogenase R118H mutant
- rate of NADH consumption with NaHCO3 added ([5]; TtHIDH, 2-oxoadipate and NADH, CO2 added as NaHCO3): 0.059 U
- increase of (R)-2-hydroxyadipate concentration after 2 h ([1]; TtHIDH, 100 μM NADH, 15 mM 2-oxoadipate, 45° C., 2 h): 61.3 µM
- increase of (S)-2-hydroxyadipate ([1]; TtHIDH, same reaction, 2 h): No increase
- decrease of NADH concentration after 2 h ([6]; TtHIDH, 15 mM 2-oxoadipate, 45° C., 2 h): 61.3 µM
- initial rate of NADH oxidation ([6]; TtHIDH, 15 mM 2-oxoadipate, 45° C., U = μmol NADH min^−1 mg^−1): 0.058±0.0031 U
